Literature values as cited in article PMC4546937.

Target: IL-13Ralpha1 (Homo sapiens) (UniProt P78552)
Sequence of UniProt P78552 (P78552 22-343): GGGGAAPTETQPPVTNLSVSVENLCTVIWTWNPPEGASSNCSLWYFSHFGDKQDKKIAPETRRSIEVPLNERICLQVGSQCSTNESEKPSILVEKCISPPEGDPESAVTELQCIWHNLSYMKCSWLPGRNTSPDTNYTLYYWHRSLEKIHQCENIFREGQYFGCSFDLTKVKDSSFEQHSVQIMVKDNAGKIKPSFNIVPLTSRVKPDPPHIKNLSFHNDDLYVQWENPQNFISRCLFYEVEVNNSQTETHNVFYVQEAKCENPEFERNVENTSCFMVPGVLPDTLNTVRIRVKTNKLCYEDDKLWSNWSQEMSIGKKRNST

Kd: 30 nM
Substance: IL-13 (from UniProt P35225)
